Data on seven molecules can be found in US20210380703A1 (RIGEL PHARMACEUTICALS, published 2021).

In one test the target is T1, human ACVR2A (human, UniProt P27037 20-135, limits assumed).
T1 construct: coated antigen of the initial ELISA; also called activin receptor, type II A
Briefly: ELISA. The gist of the method: (§1)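 mAb binding by ELISA; antigens: hu ACVR2A, mu ACVR2A; pos ctrl biotinylated goat anti-hu kappa LC; neg ctrl hu Fc.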

The next test deals with T2, mouse ACVR2A (mouse, UniProt P27038 20-135, limits assumed).
T2 construct: coated antigen of the initial ELISA
Put plainly: ELISA. The gist of the method: as §1
Background: An ELISA detects its analyte on a solid surface through an enzyme-linked reagent.

The target in test [1] is T3, biotinylated goat anti-human kappa light chain.
T3 construct: positive control of the ELISA
Briefly: ELISA, positive control. The gist of the method:
as §1
Further: test concentration or dose not given here.

T2 sequence (P27038 20-135 limits assumed): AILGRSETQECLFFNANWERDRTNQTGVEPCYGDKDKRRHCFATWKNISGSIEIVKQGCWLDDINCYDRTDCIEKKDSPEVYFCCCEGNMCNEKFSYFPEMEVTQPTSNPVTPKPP
T1 sequence (P27037 20-135 limits assumed): as the sequence (P27038 20-135 limits assumed) above, with R20K, I73V counted along it

B1: 374_G10 (antibody, V domains shown)
VH: EVQLLESGGGLVQPGGSLRLSCAASGFTFSSYSMNWVRQAPGKGLEWVSSINYNSGYTSYADSVKGRFTISRDNSKNTLYLQMNSLRAEDTAVYYCARGANWHDTHLDYWGQGTLVTVSS
VL: DIQMTQSPSSLSASVGDRVTITCRASQSIVSYLNWYQQKPGKAPKLVIYAVTSRASGVPSRFSGSGSGTDFTLTISSLQPEDFATYYCQQSYDSPLTFGGGTKVEIK
notes: Group III
With B1, the values for the optical density (with human ACVR2A; with mouse ACVR2A; in test [1]) were 3.68 OD, 3.74 OD and 3.23 OD, respectively.

B2: 374_H01 (antibody, V domains shown)
VH: EVQLLESGGGLVQPGGSLRLSCAASGFTFDSYSMNWVRQAPGKGLEWVAGINYNGGYTSYADSVKGRFTISRDNSKNTLYLQMNSLRAEDTAVYYCARGANWHDTHLDYWGQGTLVTVSS
VL: DIQMTQSPSSLSASVGDRVTITCRASQSILSYLNWYQQKPGKAPKLVIYAATSLASGVPSRFSGSGSGTDFTLTISSLQPEDFATYYCQQSYENPLTFGGGTKVEIK
notes: Group III
For the molecule B2, the optical density in the test with human ACVR2A worked out at 3.08 OD; with mouse ACVR2A, 3.26 OD; in test [1], 3.07 OD.

B3: 375_A07 (antibody, V domains shown)
VH: EVQLLESGGGLVQPGGSLRLSCAASGFTFDSYSMNWVRQAPGKGLEWVSSINYNSGYTGYADSVKGRFTISRDNSKNTLYLQMNSLRAEDTAVYYCARGANWHDTHLDYWGQGTLVTVSS
VL: DIQMTQSPSSLSASVGDRVTITCRASQSILTYLNWYQQKPGKAPKLLIYAATSRASGVPSRFSGSGSGTDFTLTISSLQPEDFATYYCQQSYDTPLTFGGGTKVEIK
notes: Group III
Take B3: the results for the optical density (with human ACVR2A; with mouse ACVR2A; in test [1]) were 3.58 OD, 3.64 OD and 3.11 OD, respectively.

B4: 374_H11 (antibody, V domains shown)
VH: EVQLLESGGGLVQPGGSLRLSCAASGFTFSSYSMNWVRQAPGKGLEWVSGINYNGGYTSYADSVKGRFTISRDNSKNTLYLQMNSLRAEDTAVYYCARGANWHDTALDYWGQGTLVTVSS
VL: DIQMTQSPSSLSASVGDRVTITCRASQSIISYVNWYQQKPGKAPKLVIYAATSLHSGVPSRFSGSGSGTDFTLTISSLQPEDFATYYCQQSYSNPLTFGGGTKVEIK
notes: Group III
B4: the optical density worked out at 3.27 OD in the test with human ACVR2A, 3.29 OD in the test with mouse ACVR2A and 3.15 OD in test [1].

B5: 375_A08 (antibody, V domains shown)
VH: EVQLLESGGGLVQPGGSLRLSCAASGFTFSSYSMNWVRQAPGKGLEWVAGINYNGGYTGYADSVKGRFTISRDNSKNTLYLQMNSLRAEDTAVYYCARGANWHDTALDYWGQGTLVTVSS
VL: DIQMTQSPSSLSASVGDRVTITCRASQSIVTYLNWYQQKPGKAPKLLIYAATSRASGVPSRFSGSGSGTDFTLTISSLQPEDFATYYCQQSYESPLTFGGGTKVEIK
notes: Group III
For the molecule B5, the optical density with human ACVR2A worked out at 3.68 OD; with mouse ACVR2A, 3.69 OD; in test [1], 3.14 OD.

B6: 374_G11 (antibody, V domains shown)
VH: EVQLLESGGGLVQPGGSLRLSCAASGFTFSDYSMNWVRQAPGKGLEWVSGINYNGGYTSYADSVKGRFTISRDNSKNTLYLQMNSLRAEDTAVYYCARGANWHDTALDYWGQGTLVTVSS
VL: DIQMTQSPSSLSASVGDRVTITCRASQSIISYVNWYQQKPGKAPKLVIYAATSLASGVPSRFSGSGSGTDFTLTISSLQPEDFATYYCQQSYDSPLTFGGGTKVEIK
notes: Group III
As to B6, the optical density in the test with human ACVR2A was determined as 3.65 OD; with mouse ACVR2A it was 3.6 OD; in test [1] it was 3.25 OD.

B7: 375_A01 (antibody, V domains shown)
VH: EVQLLESGGGLVQPGGSLRLSCAASGFTFDSYSMNWVRQAPGKGLEWVAGINYNGGYTSYADSVKGRFTISRDNSKNTLYLQMNSLRAEDTAVYYCARGANWHDTALDYWGQGTLVTVSS
VL: DIQMTQSPSSLSASVGDRVTITCRASQSILSYLNWYQQKPGKAPKLVIYAATSRASGVPSRFSGSGSGTDFTLTISSLQPEDFATYYCQQSYNTPLTFGGGTKVEIK
notes: Group III
On to B7, for which the optical density with human ACVR2A stood at 3.28 OD; with mouse ACVR2A it was 3.68 OD; in test [1], 2.91 OD.
